This data set concerns the molecule itself. The data set is described as follows: SDS-PAGE of semi-denatured protein.

B1: PanD 114Stop (aspartate decarboxylase domain without the C-terminal tail) (domain or fragment)
chain: MLRTMLKSKIHRATVTCADLHYVGSVTIDADLMDAADLLEGEQVTIVDIDNGARLVTYAITGERGSGVIGINGAAAHLVHPGDLVILIAYATMDDARARTYQPRIVFVDAYNKP
For the protein B1, the binding result is “binds”.
